In patent publication US20130324477:

Target: T1, recombinant filaggrin-2 (FLG2), positions 2 to 213 of Q5D862, fused to a Thioredoxin-His-S.Tag affinity label, Q5D862
T1 chain: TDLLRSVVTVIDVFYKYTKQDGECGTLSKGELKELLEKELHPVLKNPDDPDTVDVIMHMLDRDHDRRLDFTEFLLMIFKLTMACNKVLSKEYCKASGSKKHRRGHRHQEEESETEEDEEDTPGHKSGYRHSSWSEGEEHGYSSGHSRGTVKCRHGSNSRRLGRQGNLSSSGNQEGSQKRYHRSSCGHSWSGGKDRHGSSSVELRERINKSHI

B1: recombinant 28 kDa SASPase (SASPase-28), positions 85 to 343 of Q53RT3 (protein)
chain: MAGSGARSEEGRRQHAFVPEPFDGANVVPNLWLHSFEVINDLNHWDHITKLRFLKESLRGEALGVYNRLSPQDQGDYGTVKEALLKAFGVPGAAPSHLPKEIVFANSMGKGYYLKGKIGKVPVRFLVDSGAQVSVVHPNLWEEVTDGDLDTLQPFENVVKVANGAEMKILGVWDTAVSLGKLKLKAQFLVANASAEEAIIGTDVLQDHNAILDFEHRTCTLKGKKFRLLPVGGSLEDEFDLELIEEDPSSEEGRQELSH
enzymatic activity of SASPase (hydrolysis of Dabcyl-QIDRIMEK-Edans, EDANS fluorescence at 340/490 nm): the enzymatic activity of SASPase is significantly increased in the presence of an increasing concentration of FLG2-Hs
